Measured values: patent US20100298225A1, “PEPTIDE GAP JUNCTION MODULATORS” (priority 2007, published 2010)
“Also recorded” adds a separate entry of the source.

Columns and labels:
[1] = molecular target: T1, Cx43-expressing N2a cells (Rattus norvegicus, UniProt P08050); assay: Dual patch clamp: octanol-induced uncoupling, junctional conductance between cell pairs; assay type: cell-based; details: for Ability to re-open gap junctions closed by the uncoupler (revert uncoupled cells to coupled) / Effect on octanol-induced uncoupling: 0.1 mM peptide in internal pipette solution, octanol superfusion; for Effect on octanol-induced uncoupling: Vj 60 mV; for Average junctional conductance (Gj) as a function of time after onset of octanol: 0.1 mM peptide in pipette, Gj relative to value before octanol, N=7 pairs; for Decrease in Gj three minutes after onset of octanol: junctional current traces of a cell pair, peptide in internal pipette solution; for Cell pairs that remained coupled / uncoupled following onset of octanol superfusion: seven cell pairs, peptide in pipette, uncoupling = zero junctional current at 60-mV pulse
T1 construct: expressed in transfected cells; host or cells: N2a (neuroblastoma) cells
T1 sequence (P08050 whole entry, the tested form may be a part): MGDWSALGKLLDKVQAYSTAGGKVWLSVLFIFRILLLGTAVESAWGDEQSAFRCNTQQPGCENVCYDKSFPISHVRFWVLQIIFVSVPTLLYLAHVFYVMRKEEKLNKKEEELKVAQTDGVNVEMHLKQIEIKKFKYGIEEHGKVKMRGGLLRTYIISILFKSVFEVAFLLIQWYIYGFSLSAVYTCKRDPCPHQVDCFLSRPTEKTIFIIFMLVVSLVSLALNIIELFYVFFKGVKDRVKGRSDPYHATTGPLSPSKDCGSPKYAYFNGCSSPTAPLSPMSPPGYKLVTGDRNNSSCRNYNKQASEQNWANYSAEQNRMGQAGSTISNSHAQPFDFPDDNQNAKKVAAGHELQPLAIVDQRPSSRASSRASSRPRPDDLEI
Protocol: Experiments were conducted on N2a (Neuroblastoma) cells. Cx43 was expressed either in a lac-switch stable system (induced by 0.1-1.0 mM of IPTG (Zhong et al., “LacSwitch II Regulation of Connexin43 cDNA Expression Enables Gap-junction Single-channel Analysis,” Biotechniques 34(5):1034-1034, 1041-1044, 1046 (2003), which is hereby incorporated by reference in its entirety)) or transiently using an IRES plasmid coding for eGFP (Seki et al., “Modifications in the Biophysical Properties of Connexin43 Channels by a Peptide of the Cytoplasmic Loop Region,” Circ. Res. 95(4):e22-e28 (2004); Seki et al., “Loss of Electrical Communication, but Not Plaque Formation, After Mutations in the Cytoplasmic Loop of Connexin43,” Heart Rhythm. 1(2):227-233 (2004), which are hereby incorporated by reference in their entirety). M257 (a mutant of Cx43 truncated at amino acid 257 (Morley et al., “Intramolecular Interactions Mediate pH Regulation of Connexin43 Channels,” Biophys. J. 70(3):1294-1302 (1996), which is hereby incorporated by reference in its entirety)) was transiently expressed in N2a cells also using an eGFP-containing IRES plasmid. Cells were placed on the stage of an inverted microscope equipped for epifluorescence (Nikon Diaphoto200, Filter: 520 to 560 nm). Junctional current (I) was recorded from eGFP-positive cell pairs in a dual-whole-cell voltage clamp configuration (holding potentials: −40 mV; transjuctional voltage, Vj, +[…]; step duration, 10-30 seconds). Patch pipettes were filled with a cesium-containing solution (Seki et al., “Modifications in the Biophysical Properties of Connexin43 Channels by a Peptide of the Cytoplasmic Loop Region,” Circ. Res. 95(4):e22-e28 (2004); Seki et al., “Loss of Electrical Communication, but Not Plaque Formation, After Mutations in the Cytoplasmic Loop of Connexin43,” Heart Rhythm. 1(2):227-233 (2004), which are hereby incorporated by reference in their entirety). For the low pH experiments, HEPES was replaced by MES (10 mM). Pipette resistance was 4.0-6.0MΩ. Synthetic peptides were diluted in the pipette solution to a final concentration of 0.1 mM. During recording, cells were kept at room temperature in a cesium-containing solution (Seki et al., “Modifications in the Biophysical Properties of Connexin43 Channels by a Peptide of the Cytoplasmic Loop Region,” Circ. Res. 95(4):e22-e28 (2004); Seki et al., “Loss of Electrical Communication, but Not Plaque Formation, After Mutations in the Cytoplasmic Loop of Connexin43,” Heart Rhythm. 1(2):227-233 (2004), which are hereby incorporated by reference in their entirety). For some experiments, octanol (2.0 mM) was superfused during recording. Data acquisition and recording, and criteria for single channel detection were as reported in Seki et al., “Modifications in the Biophysical Properties of Connexin43 Channels by a Peptide of the Cytoplasmic Loop Region,” Circ. Res. 95(4):e22-e28 (2004) and Seki et al., “Loss of Electrical Communication, but Not Plaque Formation, After Mutations in the Cytoplasmic Loop of Connexin43,” Heart Rhythm. 1(2):227-233 (2004), which are hereby incorporated by reference in their entirety.
Compounds were tested for their ability to interfere with octanol-induced uncoupling. Compounds are tested for their ability to interfere with acidification induces uncoupling.
Experiments were modeled after those described in Shibayama et al (2006). Junctional conductance between Cx43-expressing N2a cell pairs was assessed using conventional dual patch clamp. Peptides were diluted in the patch pipette solution and the cells will be exposed either to octanol or to a low intracellular pH. Control experiments were carried out in the absence of the compound. The results are shown in FIGS. 3A-E, which are graphs of the time course of octanol-induced changes in coupling recorded from Cx43-expressing N2a cells. FIGS. 3A-E relate to peptides 2517, 2518, 2529, 2520 and 2624 respectively. […]

[2] = molecular target: T2, carboxyl terminal domain (CT) of Cx43 (Rattus norvegicus, UniProt P08050); assay: Peptide binding to Cx43CT determined using surface plasmon resonance (SPR); details: immobilised recombinant Cx43CT
T2 construct: GST (N, cleaved yes); made in house; host or cells: E. coli BL-21
T2 sequence (P08050 255-382): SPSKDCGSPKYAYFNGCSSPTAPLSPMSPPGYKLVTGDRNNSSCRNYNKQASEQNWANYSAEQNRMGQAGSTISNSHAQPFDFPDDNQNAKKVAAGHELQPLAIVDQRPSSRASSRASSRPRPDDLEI
Protocol: 277(39):36706-36714 (2002), which is hereby incorporated by reference in its entirety. Briefly, cDNA derived from rat Cx43 was inserted into pGEX-6P-2 (Amersham) and expressed in E. coli (BL-21). The resultant GST-fusion protein was cleaved from the GST PreScission Protease® (Amersham Biosciences). The recombinant product after cleavage contained the sequence 255-382 of rCx43 preceded by four additional amino acids (GPLG). Protein concentration was measured using the Bio-Rad DC Protein Assay. Protein purity was assessed by SDS-PAGE.
Recombinant Cx43CT was covalently bound to a carboxylmethyl dextran matrix (Salamon et al., “Surface Plasmon Resonance Spectroscopy as a Tool for Investigating the Biochemical and Biophysical Properties of Membrane Protein Systems. II: Applications to Biological Systems,” Biochim. Biophys. Acta 1331(2):131-152 (1997), which is hereby incorporated by reference in its entirety). Specific peptides were presented and, when feasible, dissociation constants (KD) were calculated from the time course of binding and unbinding of the ligand, using a 1:1 (Langmuir) association and dissociation kinetic model (Biacore software package). In both phases (association and dissociation), the first 5-8 seconds of recording were not included in the fit, to avoid artifacts resulting from peptide distribution within the flow cells (Lang et al., “Surface Plasmon Resonance as a Method to Study the Kinetics and Amplitude of Protein-protein Binding,” in PRACTICAL METHODS IN CARDIOVASCULAR RESEARCH 936-947 (Stefan Dhein, Friedrich Wilhelm Mohr & Mario Delmar eds., 2005), which is hereby incorporated by reference in its entirety).
The peptides shown in table 2 and 3 were tested for binding to the carboxyl terminal domain (CT) of Cx43 using Surface Plasmon Resonance (“SPR”). SPR is a method that was used to identify the original RXPE sequence (Shibayama et al., “Identification of a Novel Peptide that Interferes with the Chemical Regulation of Connexin-43,” Circ. Res. 98:1365-72 (2006)). The amplitude of the response is also a function of the mass of the ligate, and the normalized data according to the individual peptide Mw's are shown in table 3.

Substance	Ability to re-open gap junctions closed by the uncoupler (revert uncoupled cells to coupled) [1]	Effect on octanol-induced uncoupling [1]	Average junctional conductance (Gj) as a function of time after onset of octanol [1]	Decrease in Gj three minutes after onset of octanol [1]	Cell pairs that remained coupled / uncoupled following onset of octanol superfusion [1]	SPR respons ([2]; peptide 25 uM) [arbitrary units]	SPR respons ([2]; peptide 100 uM) [arbitrary units]	SPR respons ([2]; peptide 250 uM) [arbitrary units]	SPR respons ([2]; peptide 500 uM) [arbitrary units]	SPR respons ([2]; peptide 1 mM) [arbitrary units]
Ac-Arg-Arg-Asn-Tyr-Gly-Gly-Gly-Ser-Ala-Val-Pro-Phe-Tyr-Ser-His-Ser-Arg-Arg-Asn-Tyr-Gly-Gly-Gly-Ser-Ala-Val-Pro-Phe-Tyr-Ser-His-Ser-Arg-Arg-Asn-Tyr-Gly-Gly-Gly-Ser-Ala-Val-Pro-Phe-Tyr-Ser-His-Ser-Arg-Arg-Asn-Tyr-NH2 (Ac-RRNYGGGSAVPFYSHSRRNYGGGSAVPFYSHSRRNYGGGSAVPFYSHSRRNY-NH2) [Compound 2372]	able to revert uncoupled cells to couple cells; also recorded: re-open gap junctions that were initially closed by the uncoupler	prevented octanol-induced uncoupling	a slight decrease in Gj was apparent; also recorded: decreased at first and then increased	no or only a minor decrease in Gj	none of the cell pairs exposed to 2372 uncoupled	–	–	–	–	–
Ac-Arg-Arg-Asn-Tyr-Arg-Arg-Asn-Tyr-NH2 (Ac-RRNYRRNY-NH2) [Compound 2497]	–	prevented octanol-induced uncoupling; also recorded: preventing the uncoupling of GJ	–	–	–	30.2	84.2	201.5	327.5	565.2
Ac-Arg-Arg-Asn-Tyr-Gly-Gly-Gly-Ser-Ala-Val-Pro-Phe-Tyr-Ser-His-Ser-Arg-Arg-Asn-Tyr-NH2 (Ac-RRNYGGGSAVPFYSHSRRNY-NH2) [Compound 2366]	able to revert uncoupled cells to couple cells; also recorded: re-open gap junctions that were initially closed by the uncoupler	prevented octanol-induced uncoupling	decreased at first and then increased	–	uncoupled and then recoupled	–	–	–	–	–
Ac-Arg-Arg-Asn-Tyr-Gly-Gly-Gly-Ser-Ala-Val-Pro-Phe-Tyr-Ser-His-Ser-Arg-Arg-Asn-Tyr-Gly-Gly-Gly-Ser-Ala-Val-Pro-Phe-Tyr-Ser-His-Ser-Arg-Arg-Asn-Tyr-NH2 (Ac-RRNYGGGSAVPFYSHSRRNYGGGSAVPFYSHSRRNY-NH2) [Compound 2371]	able to revert uncoupled cells to couple cells; also recorded: re-open gap junctions that were initially closed by the uncoupler	prevented octanol-induced uncoupling	decreased at first and then increased	no or only a minor decrease in Gj	uncoupled and then recoupled	–	–	–	–	–
